Data published in US20120207760A1.

Key:
Settings in all cases: remark: other sources report otherwise
[1] = molecular target: T1, recombinant homotrimeric HA, A/Indonesia/5/05 H5N1 (Influenza A virus A/Indonesia/5/05 (H5N1)); assay: trimeric HA microarray, transfection set 1
[2] = molecular target: T2, recombinant homotrimeric HA, A/Solomon Islands/3/06 H1N1 (Influenza A virus A/Solomon Islands/3/06 (H1N1)); assay: trimeric HA microarray, transfection set 1
[3] = molecular target: T3, recombinant homotrimeric HA, A/Japan/305/57 H2N2 (Influenza A virus A/Japan/305/57 (H2N2)); assay: trimeric HA microarray, transfection set 1
[4] = molecular target: T4, recombinant homotrimeric HA, A/Egypt/3300-NAMRU3/08 H5N1 (Influenza A virus A/Egypt/3300-NAMRU3/08 (H5N1)); assay: trimeric HA microarray, transfection set 1
[5] = molecular target: T5, recombinant homotrimeric HA, A/chicken/Vietnam/NCVD-016/08 H5N1 (Influenza A virus A/chicken/Vietnam/NCVD-016/08 (H5N1)); assay: trimeric HA microarray, transfection set 1
[6] = molecular target: T6, recombinant homotrimeric HA, A/Hong Kong/2108/03 H9N2 (Influenza A virus A/Hong Kong/2108/03 (H9N2)); assay: trimeric HA microarray, transfection set 1
[7] = molecular target: T7, recombinant homotrimeric HA, A/California/4/09 H1N1 (Influenza A virus A/California/4/09 (H1N1)); assay: trimeric HA microarray, transfection set 1
[8] = molecular target: T8, recombinant homotrimeric HA, A/common magpie/Hong Kong/5052/07 H5N1 (Influenza A virus A/common magpie/Hong Kong/5052/07 (H5N1)); assay: trimeric HA microarray, transfection set 1
[9] = molecular target: T9, recombinant homotrimeric HA, A/Vietnam/1203/04 H5N1 (Influenza A virus A/Vietnam/1203/04 (H5N1)); assay: trimeric HA microarray, transfection set 1
[10] = molecular target: T10, recombinant homotrimeric HA, A/swine/Ontario/01911-2/99 H4N6 (Influenza A virus A/swine/Ontario/01911-2/99 (H4N6)); assay: trimeric HA microarray, transfection set 1
[11] = molecular target: T11, recombinant homotrimeric HA, A/South Carolina/1/18 H1N1 (Influenza A virus A/South Carolina/1/18 (H1N1)); assay: trimeric HA microarray, transfection set 1
[12] = molecular target: T1, recombinant homotrimeric HA, …; assay: trimeric HA microarray, transfection set 5
[13] = molecular target: T2, recombinant homotrimeric HA, A/Solomon …; assay: trimeric HA microarray, transfection set 5
[14] = molecular target: T3, recombinant homotrimeric HA, …; assay: trimeric HA microarray, transfection set 5
[15] = molecular target: T7, recombinant homotrimeric HA, …; assay: trimeric HA microarray, transfection set 5
[16] = molecular target: T9, recombinant homotrimeric HA, …; assay: trimeric HA microarray, transfection set 5
[17] = molecular target: T10, recombinant homotrimeric HA, …; assay: trimeric HA microarray, transfection set 5
[18] = molecular target: T11, recombinant homotrimeric HA, A/South …; assay: trimeric HA microarray, transfection set 5
[19] = molecular target: T1, recombinant homotrimeric HA, …; assay: trimeric HA microarray, transfection set 3
[20] = molecular target: T2, recombinant homotrimeric HA, A/Solomon …; assay: trimeric HA microarray, transfection set 3
[21] = molecular target: T3, recombinant homotrimeric HA, …; assay: trimeric HA microarray, transfection set 3
[22] = molecular target: T4, recombinant homotrimeric HA, …; assay: trimeric HA microarray, transfection set 3
[23] = molecular target: T5, recombinant homotrimeric HA, …; assay: trimeric HA microarray, transfection set 3
[24] = molecular target: T6, recombinant homotrimeric HA, A/Hong …; assay: trimeric HA microarray, transfection set 3
[25] = molecular target: T7, recombinant homotrimeric HA, …; assay: trimeric HA microarray, transfection set 3
[26] = molecular target: T8, recombinant homotrimeric HA, A/common …; assay: trimeric HA microarray, transfection set 3
[27] = molecular target: T9, recombinant homotrimeric HA, …; assay: trimeric HA microarray, transfection set 3
[28] = molecular target: T10, recombinant homotrimeric HA, …; assay: trimeric HA microarray, transfection set 3
[29] = molecular target: T11, recombinant homotrimeric HA, A/South …; assay: trimeric HA microarray, transfection set 3

B1: TCN-504 (3251_K17) (antibody, V domains shown)
VH: QVQLQESGPGLVKPSETLSLTCAVSGVSISNIDFYWGWIRQPPGKGLEWIGNIYYTGITFYNPSLSSRVAISIDTSKNQFSLTLTSVTAADTAMYYCARHYGDSEAINDAFDIWGQGTMLTVSS
VL: EIVMTQSPATLSVSPGERATLSCRASQSVGNSLAWYQQRPGQAPRLLIYGASTRATGIPPRFSGSGSGTEFTLTISSLQTEDFAVYYCQQYINWRPLSFGGGTKVEIK
- Trimeric HA Binding RLU [1]: 16600 RLU
- Trimeric HA Binding RLU [2]: 29800 RLU
- Trimeric HA Binding RLU [3]: 15100 RLU
- Trimeric HA Binding RLU [4]: 16100 RLU
- Trimeric HA Binding RLU [5]: 27800 RLU
- Trimeric HA Binding RLU [6]: 78 RLU
- Trimeric HA Binding RLU [7]: 18300 RLU
- Trimeric HA Binding RLU [8]: 29700 RLU
- Trimeric HA Binding RLU [9]: 1300 RLU
- Trimeric HA Binding RLU [10]: 26500 RLU
- Trimeric HA Binding RLU [11]: 21500 RLU
- Trimeric HA Binding RLU [12]: 18500 RLU
- Trimeric HA Binding RLU [13]: 30100 RLU
- Trimeric HA Binding RLU [14]: 23300 RLU
- Trimeric HA Binding RLU [15]: 17600 RLU
- Trimeric HA Binding RLU [16]: 21500 RLU
- Trimeric HA Binding RLU [17]: 54800 RLU
- Trimeric HA Binding RLU [18]: 32000 RLU
- Trimeric HA Binding RLU [19]: 18600 RLU
- Trimeric HA Binding RLU [20]: 32700 RLU
- Trimeric HA Binding RLU [21]: 36000 RLU
- Trimeric HA Binding RLU [22]: 18000 RLU
- Trimeric HA Binding RLU [23]: 10300 RLU
- Trimeric HA Binding RLU [24]: 36 RLU
- Trimeric HA Binding RLU [25]: 18600 RLU
- Trimeric HA Binding RLU [26]: 17800 RLU
- Trimeric HA Binding RLU [27]: 13300 RLU
- Trimeric HA Binding RLU [28]: 34500 RLU
- Trimeric HA Binding RLU [29]: 27600 RLU

B2: TCN-523 (5248_A17) (antibody, V domains shown)
VH: QVQLVQSGAEVKKPGSSVKVSCKASGGSFSNYAFSWVRQAPGQGLEWMGGTIPLLGTTNYAQKFQGRVTISADQFTSTAYMELGSLRSEDTAVYYCTRRKMTTAFDSWGQGTLVTVSS
VL: QPVLTQPPSASASLGASVTLTCTLSSAYSNYKVDWYQQRPGKGPRFVMRVGTGGIVGSKGDGIPDRFSVLGSGLNRYLTIKNIQEEDESDYHCGADHGSGSNFVSPYVFGGGTKLTVL
- Trimeric HA Binding RLU [1]: 18500 RLU
- Trimeric HA Binding RLU [2]: 6780 RLU
- Trimeric HA Binding RLU [3]: 191 RLU
- Trimeric HA Binding RLU [4]: 25500 RLU
- Trimeric HA Binding RLU [5]: 10800 RLU
- Trimeric HA Binding RLU [6]: 41 RLU
- Trimeric HA Binding RLU [7]: 17700 RLU
- Trimeric HA Binding RLU [8]: 6240 RLU
- Trimeric HA Binding RLU [9]: 80 RLU
- Trimeric HA Binding RLU [10]: 49 RLU
- Trimeric HA Binding RLU [11]: 26400 RLU
- Trimeric HA Binding RLU [12]: 55000 RLU
- Trimeric HA Binding RLU [13]: 37600 RLU
- Trimeric HA Binding RLU [14]: 22000 RLU
- Trimeric HA Binding RLU [15]: 34400 RLU
- Trimeric HA Binding RLU [16]: 27800 RLU
- Trimeric HA Binding RLU [17]: 1700 RLU
- Trimeric HA Binding RLU [18]: 52000 RLU
- Trimeric HA Binding RLU [19]: 22000 RLU
- Trimeric HA Binding RLU [20]: 11000 RLU
- Trimeric HA Binding RLU [21]: 4550 RLU
- Trimeric HA Binding RLU [22]: 29100 RLU
- Trimeric HA Binding RLU [23]: 18900 RLU
- Trimeric HA Binding RLU [24]: 51 RLU
- Trimeric HA Binding RLU [25]: 19400 RLU
- Trimeric HA Binding RLU [26]: 640 RLU
- Trimeric HA Binding RLU [27]: 22100 RLU
- Trimeric HA Binding RLU [28]: 1640 RLU
- Trimeric HA Binding RLU [29]: 23700 RLU
